The values that follow come from patent US20180155406A1 (Sanofi, published 2018).

B1: SEQ ID NO: 14 (peptide)
peptide: H[Aib]HGTFTSDLSKLK([γGlu-γGlu-AEEA-Palmitoyl])EEQRQKEFIEWLKAGGHPS[Aib]KPPPK-NH2
modifications: N-terminus assumed
SMILES: CCCCCCCCCCCCCCCC(=O)NCCOCCOCC(=O)N[C@@H](CCC(=O)N[C@@H](CCC(=O)NCCCC[C@H](NC(=O)[C@H](CC(C)C)NC(=O)[C@H](CCCCN)NC(=O)[C@H](CO)NC(=O)[C@H](CC(C)C)NC(=O)[C@H](CC(=O)O)NC(=O)[C@H](CO)NC(=O)[C@@H](NC(=O)[C@H](Cc1ccccc1)NC(=O)[C@@H](NC(=O)CNC(=O)[C@H](Cc1c[nH]cn1)NC(=O)C(C)(C)NC(=O)[C@@H](N)Cc1c[nH]cn1)[C@@H](C)O)[C@@H](C)O)C(=O)N[C@@H](CCC(=O)O)C(=O)N[C@@H](CCC(=O)O)C(=O)N[C@@H](CCC(N)=O)C(=O)N[C@@H](CCCNC(=N)N)C(=O)N[C@@H](CCC(N)=O)C(=O)N[C@@H](CCCCN)C(=O)N[C@@H](CCC(=O)O)C(=O)N[C@@H](Cc1ccccc1)C(=O)N[C@H](C(=O)N[C@@H](CCC(=O)O)C(=O)N[C@@H](Cc1c[nH]c2ccccc12)C(=O)N[C@@H](CC(C)C)C(=O)N[C@@H](CCCCN)C(=O)N[C@@H](C)C(=O)NCC(=O)NCC(=O)N[C@@H](Cc1c[nH]cn1)C(=O)N1CCC[C@H]1C(=O)N[C@@H](CO)C(=O)NC(C)(C)C(=O)N[C@@H](CCCCN)C(=O)N1CCC[C@H]1C(=O)N1CCC[C@H]1C(=O)N1CCC[C@H]1C(=O)N[C@@H](CCCCN)C(N)=O)[C@@H](C)CC)C(=O)O)C(=O)O
B2: SEQ ID NO: 18 (peptide)
peptide: H[Aib]HGTFTSDLSKLK([γGlu-Palmitoyl])EEQRQ[Aib]EFIEWLKAGGPPS[Aib]KPPPK-NH2
modifications: N-terminus assumed
SMILES: CCCCCCCCCCCCCCCC(=O)N[C@@H](CCC(=O)NCCCC[C@H](NC(=O)[C@H](CC(C)C)NC(=O)[C@H](CCCCN)NC(=O)[C@H](CO)NC(=O)[C@H](CC(C)C)NC(=O)[C@H](CC(=O)O)NC(=O)[C@H](CO)NC(=O)[C@@H](NC(=O)[C@H](Cc1ccccc1)NC(=O)[C@@H](NC(=O)CNC(=O)[C@H](Cc1c[nH]cn1)NC(=O)C(C)(C)NC(=O)[C@@H](N)Cc1c[nH]cn1)[C@@H](C)O)[C@@H](C)O)C(=O)N[C@@H](CCC(=O)O)C(=O)N[C@@H](CCC(=O)O)C(=O)N[C@@H](CCC(N)=O)C(=O)N[C@@H](CCCNC(=N)N)C(=O)N[C@@H](CCC(N)=O)C(=O)NC(C)(C)C(=O)N[C@@H](CCC(=O)O)C(=O)N[C@@H](Cc1ccccc1)C(=O)N[C@H](C(=O)N[C@@H](CCC(=O)O)C(=O)N[C@@H](Cc1c[nH]c2ccccc12)C(=O)N[C@@H](CC(C)C)C(=O)N[C@@H](CCCCN)C(=O)N[C@@H](C)C(=O)NCC(=O)NCC(=O)N1CCC[C@H]1C(=O)N1CCC[C@H]1C(=O)N[C@@H](CO)C(=O)NC(C)(C)C(=O)N[C@@H](CCCCN)C(=O)N1CCC[C@H]1C(=O)N1CCC[C@H]1C(=O)N1CCC[C@H]1C(=O)N[C@@H](CCCCN)C(N)=O)[C@@H](C)CC)C(=O)O
B3: SEQ ID NO: 17 (peptide)
peptide: H[Aib]HGTFTSDLSKLK([γGlu-Stearoyl])EEQRQ[Aib]EFIEWLKA[dA]GPPS[Aib]KPPPK-NH2
modifications: N-terminus assumed
SMILES: CCCCCCCCCCCCCCCCCC(=O)N[C@@H](CCC(=O)NCCCC[C@H](NC(=O)[C@H](CC(C)C)NC(=O)[C@H](CCCCN)NC(=O)[C@H](CO)NC(=O)[C@H](CC(C)C)NC(=O)[C@H](CC(=O)O)NC(=O)[C@H](CO)NC(=O)[C@@H](NC(=O)[C@H](Cc1ccccc1)NC(=O)[C@@H](NC(=O)CNC(=O)[C@H](Cc1c[nH]cn1)NC(=O)C(C)(C)NC(=O)[C@@H](N)Cc1c[nH]cn1)[C@@H](C)O)[C@@H](C)O)C(=O)N[C@@H](CCC(=O)O)C(=O)N[C@@H](CCC(=O)O)C(=O)N[C@@H](CCC(N)=O)C(=O)N[C@@H](CCCNC(=N)N)C(=O)N[C@@H](CCC(N)=O)C(=O)NC(C)(C)C(=O)N[C@@H](CCC(=O)O)C(=O)N[C@@H](Cc1ccccc1)C(=O)N[C@H](C(=O)N[C@@H](CCC(=O)O)C(=O)N[C@@H](Cc1c[nH]c2ccccc12)C(=O)N[C@@H](CC(C)C)C(=O)N[C@@H](CCCCN)C(=O)N[C@@H](C)C(=O)N[C@H](C)C(=O)NCC(=O)N1CCC[C@H]1C(=O)N1CCC[C@H]1C(=O)N[C@@H](CO)C(=O)NC(C)(C)C(=O)N[C@@H](CCCCN)C(=O)N1CCC[C@H]1C(=O)N1CCC[C@H]1C(=O)N1CCC[C@H]1C(=O)N[C@@H](CCCCN)C(N)=O)[C@@H](C)CC)C(=O)O
B4: SEQ ID NO: 19 (peptide)
peptide: H[Aib]HGTFTSDLSKLK([γGlu-Stearoyl])EEQRQ[Aib]EFIEWLKAGGPPS[Aib]KPPPK-NH2
modifications: N-terminus assumed
SMILES: CCCCCCCCCCCCCCCCCC(=O)N[C@@H](CCC(=O)NCCCC[C@H](NC(=O)[C@H](CC(C)C)NC(=O)[C@H](CCCCN)NC(=O)[C@H](CO)NC(=O)[C@H](CC(C)C)NC(=O)[C@H](CC(=O)O)NC(=O)[C@H](CO)NC(=O)[C@@H](NC(=O)[C@H](Cc1ccccc1)NC(=O)[C@@H](NC(=O)CNC(=O)[C@H](Cc1c[nH]cn1)NC(=O)C(C)(C)NC(=O)[C@@H](N)Cc1c[nH]cn1)[C@@H](C)O)[C@@H](C)O)C(=O)N[C@@H](CCC(=O)O)C(=O)N[C@@H](CCC(=O)O)C(=O)N[C@@H](CCC(N)=O)C(=O)N[C@@H](CCCNC(=N)N)C(=O)N[C@@H](CCC(N)=O)C(=O)NC(C)(C)C(=O)N[C@@H](CCC(=O)O)C(=O)N[C@@H](Cc1ccccc1)C(=O)N[C@H](C(=O)N[C@@H](CCC(=O)O)C(=O)N[C@@H](Cc1c[nH]c2ccccc12)C(=O)N[C@@H](CC(C)C)C(=O)N[C@@H](CCCCN)C(=O)N[C@@H](C)C(=O)NCC(=O)NCC(=O)N1CCC[C@H]1C(=O)N1CCC[C@H]1C(=O)N[C@@H](CO)C(=O)NC(C)(C)C(=O)N[C@@H](CCCCN)C(=O)N1CCC[C@H]1C(=O)N1CCC[C@H]1C(=O)N1CCC[C@H]1C(=O)N[C@@H](CCCCN)C(N)=O)[C@@H](C)CC)C(=O)O
B5: SEQ ID NO: 15 (peptide)
peptide: H[Aib]HGTFTSDLSKLK([γGlu-γGlu-AEEA-Palmitoyl])EEQRQKEFIEWLKA[dA]GHPS[Aib]KPPPK-NH2
modifications: N-terminus assumed
SMILES: CCCCCCCCCCCCCCCC(=O)NCCOCCOCC(=O)N[C@@H](CCC(=O)N[C@@H](CCC(=O)NCCCC[C@H](NC(=O)[C@H](CC(C)C)NC(=O)[C@H](CCCCN)NC(=O)[C@H](CO)NC(=O)[C@H](CC(C)C)NC(=O)[C@H](CC(=O)O)NC(=O)[C@H](CO)NC(=O)[C@@H](NC(=O)[C@H](Cc1ccccc1)NC(=O)[C@@H](NC(=O)CNC(=O)[C@H](Cc1c[nH]cn1)NC(=O)C(C)(C)NC(=O)[C@@H](N)Cc1c[nH]cn1)[C@@H](C)O)[C@@H](C)O)C(=O)N[C@@H](CCC(=O)O)C(=O)N[C@@H](CCC(=O)O)C(=O)N[C@@H](CCC(N)=O)C(=O)N[C@@H](CCCNC(=N)N)C(=O)N[C@@H](CCC(N)=O)C(=O)N[C@@H](CCCCN)C(=O)N[C@@H](CCC(=O)O)C(=O)N[C@@H](Cc1ccccc1)C(=O)N[C@H](C(=O)N[C@@H](CCC(=O)O)C(=O)N[C@@H](Cc1c[nH]c2ccccc12)C(=O)N[C@@H](CC(C)C)C(=O)N[C@@H](CCCCN)C(=O)N[C@@H](C)C(=O)N[C@H](C)C(=O)NCC(=O)N[C@@H](Cc1c[nH]cn1)C(=O)N1CCC[C@H]1C(=O)N[C@@H](CO)C(=O)NC(C)(C)C(=O)N[C@@H](CCCCN)C(=O)N1CCC[C@H]1C(=O)N1CCC[C@H]1C(=O)N1CCC[C@H]1C(=O)N[C@@H](CCCCN)C(N)=O)[C@@H](C)CC)C(=O)O)C(=O)O
B6: SEQ ID NO: 16 (peptide)
peptide: H[Aib]HGTFTSDLSKLK([γGlu-Palmitoyl])EEQRQ[Aib]EFIEWLKA[dA]GPPS[Aib]KPPPK-NH2
modifications: N-terminus assumed
SMILES: CCCCCCCCCCCCCCCC(=O)N[C@@H](CCC(=O)NCCCC[C@H](NC(=O)[C@H](CC(C)C)NC(=O)[C@H](CCCCN)NC(=O)[C@H](CO)NC(=O)[C@H](CC(C)C)NC(=O)[C@H](CC(=O)O)NC(=O)[C@H](CO)NC(=O)[C@@H](NC(=O)[C@H](Cc1ccccc1)NC(=O)[C@@H](NC(=O)CNC(=O)[C@H](Cc1c[nH]cn1)NC(=O)C(C)(C)NC(=O)[C@@H](N)Cc1c[nH]cn1)[C@@H](C)O)[C@@H](C)O)C(=O)N[C@@H](CCC(=O)O)C(=O)N[C@@H](CCC(=O)O)C(=O)N[C@@H](CCC(N)=O)C(=O)N[C@@H](CCCNC(=N)N)C(=O)N[C@@H](CCC(N)=O)C(=O)NC(C)(C)C(=O)N[C@@H](CCC(=O)O)C(=O)N[C@@H](Cc1ccccc1)C(=O)N[C@H](C(=O)N[C@@H](CCC(=O)O)C(=O)N[C@@H](Cc1c[nH]c2ccccc12)C(=O)N[C@@H](CC(C)C)C(=O)N[C@@H](CCCCN)C(=O)N[C@@H](C)C(=O)N[C@H](C)C(=O)NCC(=O)N1CCC[C@H]1C(=O)N1CCC[C@H]1C(=O)N[C@@H](CO)C(=O)NC(C)(C)C(=O)N[C@@H](CCCCN)C(=O)N1CCC[C@H]1C(=O)N1CCC[C@H]1C(=O)N1CCC[C@H]1C(=O)N[C@@H](CCCCN)C(N)=O)[C@@H](C)CC)C(=O)O

Numbered stars: 1 amine (or outer) side, 2 acyl side, 3 side chain; on linkers, the order of the positions; unused ones are H or OH. Square brackets hold non-standard residues; d marks the D form. Side chains are listed from the residue outwards. Ends that are not written are not given here. * marks the point of attachment. γGlu = O=C(O)[C@H](CCC(=O)[*:2])N[*:1]; Stearoyl = CCCCCCCCCCCCCCCCCC(=O)*; Palmitoyl = CCCCCCCCCCCCCCCC(=O)*; AEEA = NCCOCCOCC(=O)O; Aib = CC(C)(N)C(=O)O

The first experiment deals with human GLP-1 receptor (human, UniProt P43220 24-463). The experiment can be described thus: cell-based or functional assay.
Regarding B1, the “EC50 hGLP-1R (cAMP formation)” value is 0.9 pM.

As to B2, the “EC50 hGLP-1R (cAMP formation)” value amounted to 5.3 pM.

As to B3, the “EC50 hGLP-1R (cAMP formation)” value was 6.4 pM.

In the case of B4, the “EC50 hGLP-1R (cAMP formation)” value was 6.1 pM.

As for B5, the “EC50 hGLP-1R (cAMP formation)” value amounted to 1.1 pM.

On to B6, for which the “EC50 hGLP-1R (cAMP formation)” value stood at 7.1 pM.

The target of a further experiment is T1, human GIP receptor (human, UniProt P48546 22-466).
T1 sequence (looked up): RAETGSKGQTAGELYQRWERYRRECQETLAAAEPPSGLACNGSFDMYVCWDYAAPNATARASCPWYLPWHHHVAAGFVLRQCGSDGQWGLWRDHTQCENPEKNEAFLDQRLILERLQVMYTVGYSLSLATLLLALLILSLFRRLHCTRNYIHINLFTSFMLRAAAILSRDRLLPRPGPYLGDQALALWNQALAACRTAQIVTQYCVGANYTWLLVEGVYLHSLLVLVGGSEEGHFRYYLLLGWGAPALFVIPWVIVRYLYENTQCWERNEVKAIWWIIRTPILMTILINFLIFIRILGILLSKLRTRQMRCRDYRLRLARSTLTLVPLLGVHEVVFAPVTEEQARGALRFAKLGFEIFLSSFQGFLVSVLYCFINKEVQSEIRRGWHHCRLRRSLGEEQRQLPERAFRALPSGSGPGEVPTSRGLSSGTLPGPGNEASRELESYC
The experiment can be described thus: cell-based or functional assay.
B1: the “EC50 hGIP R (cAMP formation)” value amounted to 1.2 pM.

For the molecule B2, the “EC50 hGIP R (cAMP formation)” value was found to be 2 pM.

In the case of B3, the “EC50 hGIP R (cAMP formation)” value stood at 7.3 pM.

Turning to B4, the “EC50 hGIP R (cAMP formation)” value came out at 4 pM.

In the case of B5, the “EC50 hGIP R (cAMP formation)” value stood at 1.8 pM.

For the molecule B6, the “EC50 hGIP R (cAMP formation)” value was 3.7 pM.

The next experiment deals with human glucagon receptor (human, UniProt P47871 26-477). Nature of the experiment: cell-based or functional assay.
Sequence of human glucagon receptor (P47871 26-477): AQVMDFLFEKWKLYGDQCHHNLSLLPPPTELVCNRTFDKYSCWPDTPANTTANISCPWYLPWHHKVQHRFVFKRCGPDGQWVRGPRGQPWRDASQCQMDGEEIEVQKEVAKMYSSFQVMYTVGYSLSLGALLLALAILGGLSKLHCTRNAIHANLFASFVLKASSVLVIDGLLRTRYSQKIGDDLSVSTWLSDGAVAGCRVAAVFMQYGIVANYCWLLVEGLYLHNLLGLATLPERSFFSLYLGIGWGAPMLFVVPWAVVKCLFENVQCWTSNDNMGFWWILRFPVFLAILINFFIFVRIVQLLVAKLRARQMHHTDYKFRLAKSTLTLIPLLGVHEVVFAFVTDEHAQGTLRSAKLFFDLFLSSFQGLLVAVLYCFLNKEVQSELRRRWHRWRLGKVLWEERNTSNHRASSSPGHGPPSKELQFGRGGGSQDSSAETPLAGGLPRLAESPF
In the case of B1, the “EC50 hGlucagon R (cAMP formation)” value is 3.4 pM.

Turning to B2, the “EC50 hGlucagon R (cAMP formation)” value stood at 2.8 pM.

B3: the “EC50 hGlucagon R (cAMP formation)” value turned out to be 5.3 pM.

Consider B4, for which the “EC50 hGlucagon R (cAMP formation)” value stood at 3.1 pM.

For the molecule B5, the “EC50 hGlucagon R (cAMP formation)” value turned out to be 4.5 pM.

Turning to B6, the “EC50 hGlucagon R (cAMP formation)” value was found to be 4.3 pM.
